In patent publication US20250186541A1, “DLL3 TARGETING PEPTIDES AND CONSTRUCTS THEREOF” (MARIANA ONCOLOGY INC., priority 2023, published 2025):
Numbered stars: 1 amine (or outer) side, 2 acyl side, 3 side chain; on linkers, the order of the positions; unused ones are H or OH. Bridge positions count the residues as written; N and C are the ends. Square brackets hold non-standard residues; d marks the D form. Side chains are listed from the residue outwards. * marks the point of attachment. Ala(piperidin-4-yl) = O=C([C@H](CC1CCN([*:3])CC1)N[*:1])[*:2]; DOTA = O=C(O)CN1CCN(CC(=O)O)CCN(CC(=O)*)CCN(CC(=O)O)CC1; Phe(4-CF3) = N[C@@H](Cc1ccc(C(F)(F)F)cc1)C(=O)O; Trp(7-aza) = N[C@@H](Cc1c[nH]c2ncccc12)C(=O)O; γGlu = O=C(O)[C@H](CCC(=O)[*:2])N[*:1]; 1Nal = N[C@@H](Cc1cccc2ccccc12)C(=O)O; 2Nal = N[C@@H](Cc1ccc2ccccc2c1)C(=O)O; hPhe = N[C@@H](CCc1ccccc1)C(=O)O; tBuAla = CC(C)(C)C[C@H](N)C(=O)O; 3Pal = N[C@@H](Cc1cccnc1)C(=O)O; Cha = N[C@@H](CC1CCCCC1)C(=O)O; NMeL = CN[C@@H](CC(C)C)C(=O)O; Cba = N[C@@H](CC1CCC1)C(=O)O; Chg = N[C@H](C(=O)O)C1CCCCC1; dNle = CCCC[C@@H](N)C(=O)O; Nle = CCCC[C@H](N)C(=O)O; dNMeA = CN[C@H](C)C(=O)O; Ahx = NCCCCCC(=O)O

T1: Biotinylated human DLL3 (human, UniProt Q9NYJ7 27-492, biotinylated (site not stated))
T1 construct: also called Delta-like ligand 3; Delta Like Canonical Notch Ligand 3
T1 sequence (looked up): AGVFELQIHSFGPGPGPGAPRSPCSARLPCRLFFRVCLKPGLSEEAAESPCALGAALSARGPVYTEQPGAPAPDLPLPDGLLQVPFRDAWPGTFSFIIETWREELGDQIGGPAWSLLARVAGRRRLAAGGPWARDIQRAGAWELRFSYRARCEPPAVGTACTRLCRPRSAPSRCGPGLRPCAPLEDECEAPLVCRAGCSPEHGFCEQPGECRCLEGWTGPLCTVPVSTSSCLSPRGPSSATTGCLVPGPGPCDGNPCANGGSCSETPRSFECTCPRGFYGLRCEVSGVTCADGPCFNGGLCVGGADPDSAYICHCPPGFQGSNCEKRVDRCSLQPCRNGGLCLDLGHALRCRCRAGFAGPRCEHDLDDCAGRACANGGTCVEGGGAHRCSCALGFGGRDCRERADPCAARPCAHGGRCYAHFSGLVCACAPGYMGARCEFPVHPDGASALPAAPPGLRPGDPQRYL

B1: Cpd #63 (peptide)
peptide: Ac-MSDCWLQ[hPhe]NCPFD[dK](DOTA)-NH2
modifications: disulfide 4-10
SMILES: CSCC[C@H](NC(C)=O)C(=O)N[C@@H](CO)C(=O)N[C@@H](CC(=O)O)C(=O)N[C@H]1CSSC[C@@H](C(=O)N2CCC[C@H]2C(=O)N[C@@H](Cc2ccccc2)C(=O)N[C@@H](CC(=O)O)C(=O)N[C@H](CCCCNC(=O)CN2CCN(CC(=O)O)CCN(CC(=O)O)CCN(CC(=O)O)CC2)C(N)=O)NC(=O)[C@H](CC(N)=O)NC(=O)[C@H](CCc2ccccc2)NC(=O)[C@H](CCC(N)=O)NC(=O)[C@H](CC(C)C)NC(=O)[C@H](Cc2c[nH]c3ccccc23)NC1=O
B2: Cpd #98 (peptide)
peptide: Ac-[Chg]SDCWK(DOTA)QWNCPFD-NH2
modifications: disulfide 4-10
SMILES: CC(=O)N[C@H](C(=O)N[C@@H](CO)C(=O)N[C@@H](CC(=O)O)C(=O)N[C@H]1CSSC[C@@H](C(=O)N2CCC[C@H]2C(=O)N[C@@H](Cc2ccccc2)C(=O)N[C@@H](CC(=O)O)C(N)=O)NC(=O)[C@H](CC(N)=O)NC(=O)[C@H](Cc2c[nH]c3ccccc23)NC(=O)[C@H](CCC(N)=O)NC(=O)[C@H](CCCCNC(=O)CN2CCN(CC(=O)O)CCN(CC(=O)O)CCN(CC(=O)O)CC2)NC(=O)[C@H](Cc2c[nH]c3ccccc23)NC1=O)C1CCCCC1
B3: Cpd #108 (peptide)
peptide: Ac-[dA][dS]DC[1Nal]LQWNCPFD[dK](DOTA)-NH2
modifications: disulfide 4-10
B4: Cpd #61 (peptide)
peptide: Ac-MSDCWLQ[1Nal]NCPFD[dK](DOTA)-NH2
modifications: disulfide 4-10
SMILES: CSCC[C@H](NC(C)=O)C(=O)N[C@@H](CO)C(=O)N[C@@H](CC(=O)O)C(=O)N[C@H]1CSSC[C@@H](C(=O)N2CCC[C@H]2C(=O)N[C@@H](Cc2ccccc2)C(=O)N[C@@H](CC(=O)O)C(=O)N[C@H](CCCCNC(=O)CN2CCN(CC(=O)O)CCN(CC(=O)O)CCN(CC(=O)O)CC2)C(N)=O)NC(=O)[C@H](CC(N)=O)NC(=O)[C@H](Cc2cccc3ccccc23)NC(=O)[C@H](CCC(N)=O)NC(=O)[C@H](CC(C)C)NC(=O)[C@H](Cc2c[nH]c3ccccc23)NC1=O
B5: Cpd #70 (peptide)
peptide: Ac-MSDCW[Cba]QWNCPFD[dK](DOTA)-NH2
modifications: disulfide 4-10
B6: Cpd #90 (peptide)
peptide: Ac-SDCWLQWK(DOTA)CPFD-NH2
modifications: disulfide 3-9
SMILES: CC(=O)N[C@@H](CO)C(=O)N[C@@H](CC(=O)O)C(=O)N[C@H]1CSSC[C@@H](C(=O)N2CCC[C@H]2C(=O)N[C@@H](Cc2ccccc2)C(=O)N[C@@H](CC(=O)O)C(N)=O)NC(=O)[C@H](CCCCNC(=O)CN2CCN(CC(=O)O)CCN(CC(=O)O)CCN(CC(=O)O)CC2)NC(=O)[C@H](Cc2c[nH]c3ccccc23)NC(=O)[C@H](CCC(N)=O)NC(=O)[C@H](CC(C)C)NC(=O)[C@H](Cc2c[nH]c3ccccc23)NC1=O
B7: Cpd #64 (peptide)
peptide: Ac-MSDCWLQ[Trp(7-aza)]NCPFD[dK](DOTA)-NH2
modifications: disulfide 4-10
B8: Cpd #71 (peptide)
peptide: Ac-MSDCW[Chg]QWNCPFD[dK](DOTA)-NH2
modifications: disulfide 4-10
B9: Cpd #94 (peptide)
peptide: Ac-[Chg]SDC[1Nal]LQWNC[dNMeA]FD[dK](DOTA)-NH2
modifications: disulfide 4-10
B10: Cpd #88 (peptide)
peptide: Ac-SDCWLQWNCPFD[dK]([γGlu-DOTA])-NH2
modifications: disulfide 3-9
B11: Cpd #112 (peptide)
peptide: Ac-[Chg]SDC[1Nal]L[3Pal]WNCPFD[dK](DOTA)-NH2
modifications: disulfide 4-10
SMILES: CC(=O)N[C@H](C(=O)N[C@@H](CO)C(=O)N[C@@H](CC(=O)O)C(=O)N[C@H]1CSSC[C@@H](C(=O)N2CCC[C@H]2C(=O)N[C@@H](Cc2ccccc2)C(=O)N[C@@H](CC(=O)O)C(=O)N[C@H](CCCCNC(=O)CN2CCN(CC(=O)O)CCN(CC(=O)O)CCN(CC(=O)O)CC2)C(N)=O)NC(=O)[C@H](CC(N)=O)NC(=O)[C@H](Cc2c[nH]c3ccccc23)NC(=O)[C@H](Cc2cccnc2)NC(=O)[C@H](CC(C)C)NC(=O)[C@H](Cc2cccc3ccccc23)NC1=O)C1CCCCC1
B12: Cpd #91 (peptide)
peptide: Ac-SK(DOTA)CWLQWNCPFD-NH2
modifications: disulfide 3-9
SMILES: CC(=O)N[C@@H](CO)C(=O)N[C@@H](CCCCNC(=O)CN1CCN(CC(=O)O)CCN(CC(=O)O)CCN(CC(=O)O)CC1)C(=O)N[C@H]1CSSC[C@@H](C(=O)N2CCC[C@H]2C(=O)N[C@@H](Cc2ccccc2)C(=O)N[C@@H](CC(=O)O)C(N)=O)NC(=O)[C@H](CC(N)=O)NC(=O)[C@H](Cc2c[nH]c3ccccc23)NC(=O)[C@H](CCC(N)=O)NC(=O)[C@H](CC(C)C)NC(=O)[C@H](Cc2c[nH]c3ccccc23)NC1=O
B13: Cpd #68 (peptide)
peptide: Ac-MSDCW[Nle]QWNCPFD[dK](DOTA)-NH2
modifications: disulfide 4-10
B14: Cpd #96 (peptide)
peptide: Ac-[Chg]SK(DOTA)CWLQWNCPFD-NH2
modifications: disulfide 4-10
SMILES: CC(=O)N[C@H](C(=O)N[C@@H](CO)C(=O)N[C@@H](CCCCNC(=O)CN1CCN(CC(=O)O)CCN(CC(=O)O)CCN(CC(=O)O)CC1)C(=O)N[C@H]1CSSC[C@@H](C(=O)N2CCC[C@H]2C(=O)N[C@@H](Cc2ccccc2)C(=O)N[C@@H](CC(=O)O)C(N)=O)NC(=O)[C@H](CC(N)=O)NC(=O)[C@H](Cc2c[nH]c3ccccc23)NC(=O)[C@H](CCC(N)=O)NC(=O)[C@H](CC(C)C)NC(=O)[C@H](Cc2c[nH]c3ccccc23)NC1=O)C1CCCCC1
B15: Cpd #77 (peptide)
peptide: Ac-[Chg]SDCWLQWNCPFD[dK](DOTA)-NH2
modifications: disulfide 4-10
B16: Cpd #69 (peptide)
peptide: Ac-MSDCW[Cha]QWNCPFD[dK](DOTA)-NH2
modifications: disulfide 4-10
B17: Cpd #106 (peptide)
peptide: Ac-[Chg][dS]DC[1Nal]LQWNCPFD[dK](DOTA)-NH2
modifications: disulfide 4-10
B18: Cpd #75 (peptide)
peptide: {hexanoic acid}-SDCWLQWNCPFD[dK](DOTA)-NH2
modifications: disulfide 3-9
B19: Cpd #107 (peptide)
peptide: Ac-[dNle][dS]DC[1Nal]LQWNCPFD[dK](DOTA)-NH2
modifications: disulfide 4-10
B20: Cpd #67 (peptide)
peptide: Ac-MSDCW[tBuAla]QWNCPFD[dK](DOTA)-NH2
modifications: disulfide 4-10
B21: Cpd #111 (peptide)
peptide: Ac-[Chg]SDC[1Nal]L[Ala(piperidin-4-yl)]WNCPFD[dK](DOTA)-NH2
modifications: disulfide 4-10
B22: Cpd #92 (peptide)
peptide: {DOTA-Ahx}-SDCW[NMeL]QWNCPFD-NH2
modifications: disulfide 3-9
B23: Cpd #105 (peptide)
peptide: Ac-[Chg]SDC[1Nal]LQWNCPFD[dK](DOTA)-NH2
modifications: disulfide 4-10
B24: Cpd #87 (peptide)
peptide: Ac-SDCWLK(DOTA)WNCPFD-NH2
modifications: disulfide 3-9
B25: Cpd #62 (peptide)
peptide: Ac-MSDCWLQ[2Nal]NCPFD[dK](DOTA)-NH2
modifications: disulfide 4-10
SMILES: CSCC[C@H](NC(C)=O)C(=O)N[C@@H](CO)C(=O)N[C@@H](CC(=O)O)C(=O)N[C@H]1CSSC[C@@H](C(=O)N2CCC[C@H]2C(=O)N[C@@H](Cc2ccccc2)C(=O)N[C@@H](CC(=O)O)C(=O)N[C@H](CCCCNC(=O)CN2CCN(CC(=O)O)CCN(CC(=O)O)CCN(CC(=O)O)CC2)C(N)=O)NC(=O)[C@H](CC(N)=O)NC(=O)[C@H](Cc2ccc3ccccc3c2)NC(=O)[C@H](CCC(N)=O)NC(=O)[C@H](CC(C)C)NC(=O)[C@H](Cc2c[nH]c3ccccc23)NC1=O
B26: Cpd #65 (peptide)
peptide: Ac-MSDCWLQ[Phe(4-CF3)]NCPFD[dK](DOTA)-NH2
modifications: disulfide 4-10
B27: Cpd #82 (peptide)
peptide: Ac-[dE]SDCWLQWNCPFD[dK](DOTA)-NH2
modifications: disulfide 4-10

Biological target: T1, Biotinylated human DLL3
Assay: SPR, biotin-hDLL3 on SA chip

Row | Kd [nM] | Binder
1 | 31.3 | B1
2 | 93 | B2
3 | 2.89 | B3
4 | 2.72 | B4
5 | 6.95 | B5
6 | > 300 | B6
7 | 20.1 | B7
8 | 4.52 | B8
9 | 0.54 | B9
10 | 9.7 | B10
11 | 2.56 | B11
12 | 95.7 | B12
13 | 15.8 | B13
14 | 145 | B14
15 | 7.4 | B15
16 | 16.4 | B16
17 | 1.2 | B17
18 | 9.6 | B18
19 | 1.9 | B19
20 | 4.03 | B20
21 | 1.24 | B21
22 | 5.56 | B22
23 | 0.59 | B23
24 | 33.3 | B24
25 | 2.5 | B25
26 | 32.4 | B26
27 | 17.1 | B27
